# Legend:
# Experiment in all cases: cell-based or functional assay
# [1] = biological target: HIV-1 Env of isolate MG RM-D-019 (HIV-1)
# [2] = biological target: HIV-1 Env of isolate 92WR024 (HIV-1)
# [3] = biological target: HIV-1 Env of isolate MG RM-D-003 (HIV-1)
# [4] = biological target: HIV-1 92BR020 Env (pseudovirus) (HIV-1)
# [5] = biological target: HIV-1 Env of isolate 94KE105 (subtype AC) (HIV-1)
# [6] = biological target: HIV-1 Env of isolate MGRM-D-018 (clade D), on pseudovirus (HIV-1)
# [7] = biological target: HIV-1 93UG077 Env (pseudovirus, clade A) (HIV-1)
# [8] = biological target: HIV-1 Env of isolate SF162 (subtype B) (HIV-1) (UniProt P19550)
# [9] = biological target: HIV-1 NL43 Env (pseudovirus, clade B) (HIV-1)
# [10] = biological target: HIV-1 MGRM-A-010 Env (pseudovirus, clade A) (HIV-1)
# [11] = biological target: HIV-1 Env of isolate MG RM-D-021 (HIV-1)
# [12] = biological target: HIV-1 Env of isolate JRCSF (subtype B) (HIV-1) (UniProt P20871)
# [13] = biological target: HIV-1 Env of isolate 92UG005 (HIV-1)
# [14] = biological target: HIV-1 Env of isolate MG RM-D-004 (HIV-1)
# [15] = biological target: HIV-1 Env of isolate PVO.4 (subtype B) (HIV-1)
# [16] = biological target: HIV-1 Env of isolate 92BR020 (HIV-1)
# [17] = biological target: HIV-1 JRCSF Env (pseudovirus, clade B) (HIV-1) (UniProt P20871)
# [18] = biological target: HIV-1 Env of isolate MGRM-AG-001 (subtype AG) (HIV-1)
# [19] = biological target: HIV-1 envelope glycoprotein (Env) of isolate MGRM-C-027 (HIV-1)
# [20] = biological target: HIV-1 Env of isolate 93WR029 (HIV-1)
# [21] = biological target: HIV-1 Env of isolate MGRM-F1-006 (pseudovirus) (HIV-1)
# [22] = biological target: HIV-1 Env of isolate TRJ04551.58 (subtype B pseudovirus) (HIV-1)
# [23] = biological target: HIV-1 Env of isolate MGRM-D-008 (pseudovirus) (HIV-1)
# [24] = biological target: HIV-1 Env of isolate VLGCB3 (subtype B pseudovirus) (HIV-1)
# [25] = biological target: aMLV envelope (pseudovirus, negative control)
# [26] = biological target: HIV-1 Env of isolate APV_6 (subtype B pseudovirus) (HIV-1)
# [27] = biological target: HIV-1 Env of isolate MGRM-Chronic-B-020 (subtype B pseudovirus) (HIV-1)
# [28] = biological target: HIV-1 Env of isolate MGRM-Chronic-B-003 (subtype B pseudovirus) (HIV-1)
# [29] = biological target: HIV-1 CMU02 envelope glycoprotein (Env) on pseudovirus (HIV-1)
# [30] = biological target: HIV-1 Env of isolate MGRM-F1-022 (HIV-1)
# [31] = biological target: HIV-1 Env of isolate MGRM-F1-018 (HIV-1)
# 5345_I01 (PGT-137) (antibody), sequence (VH): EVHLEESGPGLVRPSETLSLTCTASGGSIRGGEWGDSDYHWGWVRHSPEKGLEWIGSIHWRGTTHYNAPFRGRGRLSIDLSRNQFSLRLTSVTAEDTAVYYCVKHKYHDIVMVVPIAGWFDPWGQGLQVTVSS
# 5345_I01 (PGT-137) (antibody), sequence (VL): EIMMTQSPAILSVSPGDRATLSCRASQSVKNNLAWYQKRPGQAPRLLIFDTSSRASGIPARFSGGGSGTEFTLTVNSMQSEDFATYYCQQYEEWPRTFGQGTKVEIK
# 5329_C19 (PGT-136) (antibody), sequence (VH): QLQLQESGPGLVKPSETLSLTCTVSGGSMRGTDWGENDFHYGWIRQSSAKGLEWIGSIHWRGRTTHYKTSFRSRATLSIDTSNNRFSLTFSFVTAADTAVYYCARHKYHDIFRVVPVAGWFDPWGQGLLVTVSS
# 5329_C19 (PGT-136) (antibody), sequence (VL): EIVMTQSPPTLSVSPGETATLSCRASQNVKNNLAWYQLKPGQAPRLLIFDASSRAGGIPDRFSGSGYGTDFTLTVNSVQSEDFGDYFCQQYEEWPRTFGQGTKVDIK
Substance,"IC50 (µg/mL), pseudovirus neutralization [1] [µg/mL]",IC50 [2] [mg/L],"IC50 (µg/mL), pseudovirus neutralization [3] [µg/mL]",neutralization IC50 (pseudovirus) [4] [mg/L],"IC50 (µg/mL), pseudovirus neutralization [5] [µg/mL]","IC50, pseudovirus neutralization [6] [mg/L]",IC50 neutralization [7] [mg/L],IC50 neutralization [8] [mg/L],IC50 neutralization [9] [mg/L],IC50 neutralization [10] [mg/L],"IC50 (µg/mL), pseudovirus neutralization [11] [µg/mL]",IC50 neutralization [12] [mg/L],"IC50 (µg/mL), pseudovirus neutralization [13] [µg/mL]","IC50 (µg/mL), pseudovirus neutralization [14] [µg/mL]",IC50 neutralization [15] [mg/L],neutralization IC50 [16] [mg/L],IC50 neutralization [17] [mg/L],"IC50 (µg/mL), pseudovirus neutralization [18] [µg/mL]","IC50 (µg/mL), pseudovirus neutralization [19] [µg/mL]",IC50 [20] [mg/L],also measured
5329_C19 (PGT-136) (antibody),> 50,> 50,> 50,> 10,> 50,> 10,> 10,0.482,> 10,> 10,> 50,> 50,> 50,> 50,> 50,8.61,> 10,> 50,> 50,> 50,
5345_I01 (PGT-137) (antibody),> 50,> 50,> 50,,18.5,,,3.41,,,> 50,> 50,> 50,> 50,> 50,7.81,,> 50,> 50,> 50,
5343_B08 (PGT-135) (antibody),> 50,> 50,> 50,0.104,0.063,0.0433,> 10,0.023,6.79,> 10,> 50,0.131,> 50,> 50,> 50,0.073,0.113,> 50,> 50,> 50,
4858_P08 (PGT-123) (antibody),,,,0.013,,0.0047,0.0303,,> 10,0.492,,,,,,,0.0423,,,,"IC50, pseudovirus neutralization [21]: 6.89 mg/L; IC50 (µg/mL), pseudovirus neutralization [22]: 16.9 µg/mL; IC50, pseudovirus neutralization [23]: > 50 mg/L; IC50 (µg/mL), pseudovirus neutralization [24]: 0.004 µg/mL; neutralization IC50 (pseudovirus) [25]: > 10 mg/L; IC50 (µg/mL), pseudovirus neutralization [26]: 0.023 µg/mL; IC50 (µg/mL), pseudovirus neutralization [27]: 0.005 µg/mL; IC50 (µg/mL), pseudovirus neutralization [28]: 0.008 µg/mL; neutralization IC50 [29]: > 10 mg/L; neutralization IC80 [29]: > 10 mg/L; neutralization IC90 [29]: > 10 mg/L; neutralization IC95 [29]: > 10 mg/L; IC50 (µg/mL), pseudovirus neutralization [30]: 0.075 µg/mL; IC50 (µg/mL), pseudovirus neutralization [31]: 0.054 µg/mL"

# Source: patent publication US20250320281A1
